# Laboratory results published in patent US7252951B2, “Essential downstream component of the wingless signaling pathway and therapeutic and diagnostic applications based thereon” (Universität Zurich, priority 2000, dated 2007).
# System: Arm-Tcf transcriptional activity
# Test: Tcf-reporter gene (TOPFLASH luciferase) assay in HEK293 cells
# Format: cell-based
# Conditions: 4 ng pcDNA3-ΔArm, 200 ng pcDNA3-EGFP-hLgs-peptide, 48 h after transfection, normalized for renilla luciferase
# Method: FIG. 15(A) Effect of the expression of Lgs sequence homology 2-peptides on Tcf transcriptional activity. HEK293 cells at 50% confluence were plated into 24-well plates and transfected by a lipofection method. 240 ng of TOPFLASH luciferase reporter plasmid (Upstate biotechnology, New York, USA), 4 ng of pcDNA3-ΔArm, 200 ng of pcDNA3-EGFP-Lgs-peptide and 10 ng of a renilla luciferase reporter plasmid pRL-SV40 (Promega Corporation, Madison USA) were diluted into 25 μl of OPTI-MEM Medium (Life Technologies, Inc.) and combined with 1.2 μl of Lipofectamine (Life Technologies, Inc.) in 25 μl OPTI-MEM. After incubation for 20 min, 0.175 ml of OPTI-MEM was added and the mixtures were overlaid onto monolayers of cells. After culturing at 37° C./5% CO2 for 6 hr, 0.225 ml of OPTI-MEM containing 20% FCS was added to the cultures. […]
# The effect of Lgs on Tcf transactivation activity can be performed in a cell culture system using a Tcf reporter gene. A Tcf-responsive reporter gene is a contruct which comprises a readily detectable or assayable gene such β-galactosidase, green fluorescent protein, chloramphenicol acetyltransferase or luciferase, linked in cis to a Tcf response element and a minimal promoter. […]
row,Molecule,Arm-Tcf transcriptional activity (Tcf-driven luciferase)
1,"hLgs/Bcl9(199–392): Fragment (amino acids 199–392) of human Lgs/Bcl9 with a sequence homology domain, expressed as EGFP fusion from pcDNA3 (protein, left off: large carriers) TIVSFHIQNISNNKTERSTAPLNTQISALRNDPKPLPQQPPAPANQDQNSSQNTRLQPTPPIPAPAPKPAAPPRPLDRESPGVENKLIPSVGSPASSTPLPPDGTGPNSTPNNRAVTPVSQGSNSSSADPKAPPPPPVSSGEPPTLGENPDGLSQEQLEHRERSLQTLRDIQRMLFPDEKEFTGAQSGGPQQNP",strongly inhibit
2,"hLgs/Bcl9(279–392): Fragment (amino acids 279–392) of human Lgs/Bcl9 with a sequence homology domain, expressed as EGFP fusion from pcDNA3 (protein, left off: large carriers) PGVENKLIPSVGSPASSTPLPPDGTGPNSTPNNRAVTPVSQGSNSSSADPKAPPPPPVSSGEPPTLGENPDGLSQEQLEHRERSLQTLRDIQRMLFPDEKEFTGAQSGGPQQNP",strongly inhibit
